This is an account of results in patent US10519238 (Dana-Farber, dated 2019).

Assay [1] deals with T1, recombinant human galectin-8 (R&D Systems) (human, UniProt O00214 1-317, limits assumed).
T1 construct: also called Gal8
T1 sequence (looked up): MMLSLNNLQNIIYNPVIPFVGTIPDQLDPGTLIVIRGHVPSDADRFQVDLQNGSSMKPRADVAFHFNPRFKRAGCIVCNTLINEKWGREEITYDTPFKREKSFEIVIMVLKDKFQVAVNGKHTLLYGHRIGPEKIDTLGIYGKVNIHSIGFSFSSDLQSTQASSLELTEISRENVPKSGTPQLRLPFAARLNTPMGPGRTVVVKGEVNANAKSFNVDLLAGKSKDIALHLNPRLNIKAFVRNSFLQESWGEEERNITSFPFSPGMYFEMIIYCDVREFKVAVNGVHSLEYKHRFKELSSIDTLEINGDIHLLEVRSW
Nature of the assay: SPR (BIAcore 3000), 8A12 captured via anti-mouse antibody, galectin as analyte. As for the experimental part: (§1) Surface Plasmon Resonance (SPR) analyses (also called Biomolecular Interaction Analysis, BIAcore) were also conducted in order to further define the biophysical properties (e.g., $kon$, $koff$, $koff/kon$ (K_D) of Gal1's interaction with the 8A12 mAb. SPR experiments were performed at 25° C. in the standard BIAcore running buffer HBS-EP on a BIAcore 3000 Instrument (BIAcore). In brief, anti-mouse antibody was first captured on the CM-5 sensor chip ((GE HealthCare). Afterwards, approximately 250 response units (RU) of anti-Gal1 mAb 8A12 were immobilized (with exception of ~350 RU for rmGal1 assay) and followed by various dilutions of recombinant galectin (human galetin-1, 2, 3, 4, 7, 8, 9 or murine galectin-1 (mGal1), from R&D Systems) to assess the binding of galectin 8A12. All data are shown after subtraction from a channel loaded with buffer alone. Data analysis to obtain the binding curves shown and equilibrium dissociation constant (KD) was performed using BIAevaluation 3.1 (BIAcore) by globally fitting the data to a simple 1:1 (Langmuir) binding model.
(In general: In SPR one partner is held on a chip, and binding of the other changes the refractive index at the surface.)

For assay [2], the target named is T2, recombinant human galectin-2 (R&D Systems) (human, UniProt P05162 1-132, limits assumed).
T2 construct: also called Gal2
T2 sequence (looked up): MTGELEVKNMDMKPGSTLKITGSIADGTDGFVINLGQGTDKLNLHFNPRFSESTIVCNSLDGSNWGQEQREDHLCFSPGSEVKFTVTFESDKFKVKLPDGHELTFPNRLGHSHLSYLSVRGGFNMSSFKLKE
The description is as above. As for the experimental part: as §1

Assay [3] deals with T3, recombinant human galectin-3 (R&D Systems) (human, UniProt P17931 2-250).
T3 construct: also called Gal3
Described as above. The method, then:
as §1

Assay [4] deals with T4, recombinant human galectin-7 (R&D Systems) (human, UniProt P47929 2-136, limits assumed).
T4 construct: also called Gal7
Described as above. The method, then:
as §1

Assay [5] concerns the target T5, recombinant human galectin-4 (R&D Systems) (human, UniProt P56470 2-323, limits assumed).
T5 construct: also called Gal4
T5 sequence (looked up): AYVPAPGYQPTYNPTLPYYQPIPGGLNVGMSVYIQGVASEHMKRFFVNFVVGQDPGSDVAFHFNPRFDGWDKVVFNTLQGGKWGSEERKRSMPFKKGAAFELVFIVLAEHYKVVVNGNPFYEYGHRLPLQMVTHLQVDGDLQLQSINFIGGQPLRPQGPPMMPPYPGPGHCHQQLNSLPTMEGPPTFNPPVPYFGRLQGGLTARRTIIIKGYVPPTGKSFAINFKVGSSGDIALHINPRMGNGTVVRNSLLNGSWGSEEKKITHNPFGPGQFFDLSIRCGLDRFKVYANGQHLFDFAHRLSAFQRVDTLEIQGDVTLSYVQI
The assay is described as above. The method, then:
as §1

In assay [6] the target is T6, recombinant human galectin-9 (R&D Systems) (human, UniProt O00182-2 2-323, limits assumed).
T6 construct: also called Gal9
Described as above. As for the experimental part:
as §1

Assay [7] concerns the target T7, endogenous murine Gal1 (galectin-1) in lysates of the murine melanoma line B16-F10 (mouse, UniProt P16045 2-135).
T7 construct: Endogenous protein in cell lysate, seen on Western blot; also called mouse Gal1
Put plainly: Western blot of B16-F10 cell lysate, antibody titration. The source says:
(§2) WB analysis of cell lysates derived from human Hodgkin lymphoma line, L428 and murine melanoma line, B16-F10. Lysates were probed with 8A12 at different titration showing a specific band of Gal1 (~14 kDa), 8A12 recognizes endogenous human and murine Gal1 at similar range of titres.
In general terms: In western blotting, separated proteins are transferred to a membrane and probed.

Assay [8] deals with T8, recombinant GST-tagged full length human Gal1 (F7) (human, UniProt P09382 1-135).
T8 construct: Produced in E. coli; also called GST-F7; not shown: glutathione S-transferase (GST) tag
Nature of the assay: Western blot. The method, then: Anti-Gal1 monoclonal antibodies were generated and were determined to cross-react well with both human Gal1 and mouse Gal1 (FIG. 1). […] Six recombinant human Gal1 fragments (covering the N-terminal, CBD, post-CBD sequences) named F1, F2, F3, F4, F5, F6 and the full length protein F7 in fusion with GST-tag were produced in E. coli (FIG. 2).

The target in assay [9] is T9, endogenous human Gal1 (galectin-1) in lysates of the human Hodgkin lymphoma line L428 (human, UniProt P09382 2-135).
T9 construct: Endogenous protein in cell lysate, seen as a band of ~14 kDa on Western blot; also called hGal1
Put plainly: Western blot of L428 cell lysate, antibody titration.
Text: as §2

Assay [10] concerns the target T10, recombinant murine galectin-1 (R&D Systems) (mouse, UniProt P16045 2-135).
T10 construct: Bought from R&D Systems; also called rmGal1; mGal1
Put plainly: SPR (BIAcore 3000, 25 C), 8A12 captured via anti-mouse antibody, galectin as analyte, 1:1 Langmuir fit. As for the experimental part:
as §1

Assay [11] has as its target T11, recombinant human galectin-1 (R&D Systems) (human, UniProt P09382 2-135).
T11 construct: Bought from R&D Systems; also called rhGal1; human galetin-1
Described as above. As for the experimental part: as §1

T8 sequence (P09382 whole entry): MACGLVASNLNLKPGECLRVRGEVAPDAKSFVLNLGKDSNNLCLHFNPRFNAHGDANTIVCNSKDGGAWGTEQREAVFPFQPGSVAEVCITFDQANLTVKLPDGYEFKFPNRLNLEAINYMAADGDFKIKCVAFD
T4 sequence (P47929 2-136 limits assumed): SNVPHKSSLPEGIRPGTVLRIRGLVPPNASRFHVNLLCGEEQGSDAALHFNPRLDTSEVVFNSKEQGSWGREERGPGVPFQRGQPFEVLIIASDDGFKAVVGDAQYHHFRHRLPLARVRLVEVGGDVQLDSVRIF
T3 sequence (P17931 2-250 limits assumed): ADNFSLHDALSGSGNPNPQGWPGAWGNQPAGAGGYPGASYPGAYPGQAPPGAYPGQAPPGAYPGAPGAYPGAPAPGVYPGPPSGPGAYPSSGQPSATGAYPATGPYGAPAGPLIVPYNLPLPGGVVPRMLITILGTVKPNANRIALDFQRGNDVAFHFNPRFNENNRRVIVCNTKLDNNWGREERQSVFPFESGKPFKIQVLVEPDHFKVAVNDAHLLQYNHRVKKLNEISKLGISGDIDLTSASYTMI
T9 sequence (P09382 2-135 limits assumed): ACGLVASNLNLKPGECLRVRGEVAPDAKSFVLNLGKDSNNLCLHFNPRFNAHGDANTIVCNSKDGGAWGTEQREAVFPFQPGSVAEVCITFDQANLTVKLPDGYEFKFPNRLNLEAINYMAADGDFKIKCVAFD
T11 sequence (P09382 2-135 limits assumed): as above
T6 sequence (O00182 other isoform, or with tags, fused parts or gaps limits assumed): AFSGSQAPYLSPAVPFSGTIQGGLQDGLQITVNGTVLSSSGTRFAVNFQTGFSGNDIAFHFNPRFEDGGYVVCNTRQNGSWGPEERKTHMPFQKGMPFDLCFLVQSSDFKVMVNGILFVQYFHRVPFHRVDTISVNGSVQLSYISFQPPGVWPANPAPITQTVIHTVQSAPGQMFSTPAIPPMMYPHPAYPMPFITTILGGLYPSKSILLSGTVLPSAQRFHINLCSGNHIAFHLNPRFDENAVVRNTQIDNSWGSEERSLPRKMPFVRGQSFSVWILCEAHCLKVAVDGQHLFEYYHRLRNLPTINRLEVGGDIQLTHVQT
T10 sequence (P16045 2-135 limits assumed): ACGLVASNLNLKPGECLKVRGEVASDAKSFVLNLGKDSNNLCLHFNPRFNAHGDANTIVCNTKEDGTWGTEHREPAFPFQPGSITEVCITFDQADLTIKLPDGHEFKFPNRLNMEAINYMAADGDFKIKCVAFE
T7 sequence (P16045 2-135 limits assumed): as above

B1: anti-Gal1 monoclonal antibody 8A12.H9.H10 (antibody, V domains shown)
VH: QAYLQQSGAELVRPGASVRMSCKASGYTFTRYNMHWVKQTPRQGLEWIGRIYPGNGDTSYNQKFKGKATLTVDKSSSTAYMQLSSLTSEDSAVYFCTVWDYWGQGTTLTVSS
VL: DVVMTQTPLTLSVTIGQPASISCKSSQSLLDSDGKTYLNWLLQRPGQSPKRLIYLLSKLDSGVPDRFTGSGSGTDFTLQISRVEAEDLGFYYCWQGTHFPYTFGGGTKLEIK
notes: Murine monoclonal antibody from a hybridoma with a kappa light chain; Signal peptide limits are stated in base pairs and were converted to residues; also called 8A12 mAb; 8A12 antibody
For B1, the binding result in assay [1], in assay [2], in [3], in assay [4], in assay [5] and in assay [6] was “no binding” each time. For the same molecule, the binding result in assay [7], in assay [8], in [9], in assay [10] and in assay [11] was “binds” each time.
